Measured values taken from the PETadex activity labels (doi:10.3390/microorganisms12010138).

B1: unnamed (protein)
chain: MNFPRASRLMQAAVLGGLMAVSAAATAQTNPYARGPNPTAASLEASAGPFTVRSFTVSRPSGYGAGTVYYPTNAGGTVGAIAIVPGYTARQSSIKWWGPRLASHGFVVITIDTNSTLDQPSSRSSQQMAALRQVASLNGTSSSPIYGKVDTARMGVMGWSMGGGGSLISAANNPSLKAAAPQAPWDSSTNFSSVTVPTLIFACENDSIAPVNSSALPIYDSMSRNAKQFLEINGGSHSCANSGNSNQALIGKKGVAWMKRFMDNDTRYSTFACENPNSTRVSDFRTANCS
B2: unnamed (protein)
chain: MKKLLKVLLIIFLVIVVLVIGLVIFLTIASGKQNAPKEYWNAIASEGTIEKEYNKLGSYEFESKVYDAPKVDSHDNNFVVYMPKEEGTYPLVVMVNGSGTPWDKYKAVFEHFASWGYVVVGCNYEISWDGKHASETLDFALNTKEIADKVDTSKVAVCGHSQGGEGAFNAALEYDNSDMYKAIISLSPTNQELALGLKWGFNLDTDDMYAYRLENVTIPTMIIAGTGKFDSETVTPLYKMEDMFEQLNTDVVMARLSNNVDHGAVLYEANGYVIAWLDYYLKGIETNGTAFFGNEAEIKNNTRYQDFTSQKV
B3: unnamed (protein)
chain: MQNPSAPVVETRQGALTGLTDENVHRWCGIPYAAPPVGDWRWRSPRPPERWDGVRDATAFSASSWQSSEYCQELGGGDPGQFSEDCLYLNVWSPVDRPGSLPVMVWLHGGGFTIGAGGLPPYHGKSLAARGVVVVTINYRLGHLGFFAHPALEGEEERVVHNFALLDQIAALEWVRENITAFGGDPHNVTLFGESAGARSVLSLLASPLAEGLFHKAIVQSGYTLPDTPRQQALQKGEALAAHFGLENATAEQLRAIPPESFWPLTAPLNIAPAPIVGDCVLPEAMLDVFFAARQHPVPVMIGSNSDEASVMAVFGIDLAGQIQKLRRERRFGLGLIKLLYPGVKGDEELGRQVCRDMAFTTMGYVVMQAQQRVGGLCWRYWFDYVAEAEHATYINGAWHGNEVPYVFDTLGQVEPSRQYVNERDLQFAARVADYWVSFARDAGTHDSLSGPTHWPACRKGRDVLLRIGVNKHAGFRLENRFMRARMSLFKRVMKHHVSLD
B4: unnamed (protein)
chain: MKKLLKVLLIIFLVIVVLVIGLVIFLTIASGKQNAPKEYWNAIASEGTIEKEYNKLGSYEFESKVYDAPKVDSHDNNFVVYMPKEEGTYPLVVMVNGSGTPWDKYKAVFEHFASWGYVVVGCNYEISWDGKHASETLDFALNTKEIADKVDTSKVAVCGHSQGGEGAFNAALEYDNSDMYKAIISLSPTNQELALGLKWGFNLDTDDMYAYRLENVTIPTMIIAGTGKFDSETVTPLYKMEDMFEQLNTDVVMARLSNNVDHGAVLYEANGYVIAWLDYYLKGIETNGTAFFGNEAEIKNNTRYQDFTSQKVK
B5: unnamed (protein)
chain: MEKSVLIKGDNYDISGILSYKETVDKMPAVILCHGTGAQKNEVGDLFVILAEKLLQRGIASIRIDYAGCGDSKADQRELTFLGEVEDTKKAYQYICDLGCVDQKNIGILGFSQGARVVAELLKEMQEFTCVASWSGACQNGRGVFEGWFQEYYQEAEEHGYARIPMGWRDDLLLSKQWFDEIENTTPMDGLKKYTGPVLAVAGAADEIVPCSHTKEIMAEGTNEQSKMLILPGADHIFNVLSGDKTMSEHVLDVTADWFAEVMGGAKISK

Key:
[1] = substrate: PET; experiment: Proxy for plastic degradation [Released monomer concentration (HPLC/LC-MS) (MHET)]; settings: pH 7
[2] = substrate: PET; experiment: Proxy for plastic degradation [Released monomer concentration (HPLC/LC-MS) (TPA)]; settings: pH 7

Protein	Proxy for plastic degradation [2]	Proxy for plastic degradation ([1]; 37 °C)	further results
B1			Proxy for plastic degradation ([1]; part of the chain shown): 370 µM
B2			Proxy for plastic degradation ([2]; 37 °C, part of the chain shown): 0 µM; Proxy for plastic degradation ([1]; 37 °C, part of the chain shown): 0 µM
B3	2 µM	0 µM	Proxy for plastic degradation ([2]; 37 °C): 0 µM; Proxy for plastic degradation [1]: 0 µM
B4	6 µM		
B5	4 µM	0 µM	
